According to patent publication US20050124794A1, “Cell surface tropomyosin as a target of angiogenesis inhibition” (priority 2002, published 2005):

How the values were obtained:
[1] = target: Chicken gizzard tropomyosin (Tpm), purified (chicken); assay: plate assays on immobilized chicken gizzard Tpm (FIGS. 14 and 15)
[2] = target: Chicken gizzard tropomyosin (Tpm), purified (chicken); assay: competition with 10 nM biotin-HKa on plate coated with chicken gizzard Tpm, 10 µM ZnCl2
[3] = target: Chicken gizzard tropomyosin (Tpm), purified (chicken); assay: competition ELISA against 10 nM biotin-HKa on immobilized chicken gizzard Tpm, 10 uM ZnCl2; Kd by non-linear regression
[4] = target: Tropomyosin (Tpm) exposed on the surface of proliferating human umbilical vein endothelial cells (human); assay: biotin-HKa on unfixed subconfluent HUVEC in 96-well plates, 4 °C, with and without 10 µM Zn2+, streptavidin-peroxidase; nonlinear regression

Endostatin (ligand), sequence (P39060 1572-1754): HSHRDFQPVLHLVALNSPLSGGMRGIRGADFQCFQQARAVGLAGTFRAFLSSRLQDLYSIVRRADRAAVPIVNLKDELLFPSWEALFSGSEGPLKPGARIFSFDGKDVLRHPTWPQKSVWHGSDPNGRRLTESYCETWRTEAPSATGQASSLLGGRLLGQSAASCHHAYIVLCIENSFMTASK
Chicken gizzard tropomyosin (Tpm), purified (chicken), sequence (chain, as listed by the source limits assumed): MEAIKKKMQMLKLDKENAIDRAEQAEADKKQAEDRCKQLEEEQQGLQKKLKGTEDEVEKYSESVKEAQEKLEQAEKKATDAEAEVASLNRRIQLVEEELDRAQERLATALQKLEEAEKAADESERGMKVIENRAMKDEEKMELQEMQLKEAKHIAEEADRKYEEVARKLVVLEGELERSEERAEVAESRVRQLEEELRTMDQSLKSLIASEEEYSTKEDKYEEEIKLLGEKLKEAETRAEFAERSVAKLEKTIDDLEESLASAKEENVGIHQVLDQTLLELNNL

Row | Substance | fold lower affinity than HKa or HKa-D5 [1] [fold] | Kd [2] [µM] | Kd [3] [µM] | Kd [4] [µM]
1 | Endostatin (ligand) | 1000 | 2 | 1.97 | –
2 | Two-chain high molecular weight kininogen (HKa) (from UniProt P01042 19-380; P01042 390-644) (ligand) | – | – | – | 0.0025
